# Reference: the supplement of paper PMC9112550, “Optimization of the antimicrobial peptide Bac7 by deep mutational scanning” (BMC Biology, 2022)
# System: Escherichia coli TOP10
# Assay: shrunken log2 fold change of peptide-encoding DNA abundance (4.5 h post-induction vs induction); higher = less antimicrobial activity (less host growth inhibition)
# Details: time post-induction: 4.5 h; library: site-saturation at positions 5, 18, 19, 20
# 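Further: peptides expressed intracellularly from a pBAD plasmid library in pooled LB shake-flask culture, induced with 0.3% L-arabinose, DNA abundance read by NGS, three biological replicates, DESeq2 with apeglm shrinkage.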
row,Sequence,shrunken log2 fold change
1,RRIRKRPPRLPRPRPRPEMKPRP,0.682
2,RRIRTRPPRLPRPRPRPVHMPRP,-0.123
3,RRIRVRPPRLPRPRPRPRMAPRP,0.199
4,RRIRTRPPRLPRPRPRPRCEPRP,0.117
5,RRIRERPPRLPRPRPRPELLPRP,-0.000642
6,RRIRTRPPRLPRPRPRPSDHPRP,-0.274
7,RRIRARPPRLPRPRPRPEHLPRP,0.108
8,RRIRNRPPRLPRPRPRPWRLPRP,0.0636
9,RRIRYRPPRLPRPRPRPVYAPRP,-0.683
10,RRIRCRPPRLPRPRPRPCCKPRP,-0.0101
11,RRIRYRPPRLPRPRPRPWLQPRP,-0.216
12,RRIRHRPPRLPRPRPRPGESPRP,-0.0414
13,RRIRARPPRLPRPRPRPTSWPRP,0.756
14,RRIRERPPRLPRPRPRPFASPRP,0.00624
15,RRIRQRPPRLPRPRPRPCNLPRP,0.0555
16,RRIRYRPPRLPRPRPRPMLFPRP,-0.347
17,RRIRSRPPRLPRPRPRPNAHPRP,-0.184
18,RRIRLRPPRLPRPRPRPTKQPRP,0.103
19,RRIRVRPPRLPRPRPRPGWNPRP,-0.0405
20,RRIRRRPPRLPRPRPRPFRIPRP,0.101
21,RRIRHRPPRLPRPRPRPAPGPRP,0.536
22,RRIRQRPPRLPRPRPRPNCVPRP,-0.0688
23,RRIRTRPPRLPRPRPRPCWPPRP,0.0465
24,RRIRIRPPRLPRPRPRPFHLPRP,-0.0356
25,RRIRPRPPRLPRPRPRPLALPRP,0.193

row,Sequence,shrunken log2 fold change
1,RRIRGRPPRLPRPRPRPEFNPRP,0.669
2,RRIRCRPPRLPRPRPRPWHVPRP,-0.259
3,RRIRYRPPRLPRPRPRPTFVPRP,-0.0102
4,RRIRKRPPRLPRPRPRPHSLPRP,0.0727
5,RRIRIRPPRLPRPRPRPKDLPRP,0.000215
6,RRIRIRPPRLPRPRPRPSCGPRP,-0.174
7,RRIRERPPRLPRPRPRPSSWPRP,-0.0518
8,RRIRHRPPRLPRPRPRPWVTPRP,0.0283
9,RRIRFRPPRLPRPRPRPEQSPRP,0.0672
10,RRIRCRPPRLPRPRPRPCPSPRP,-0.0705
11,RRIRIRPPRLPRPRPRPSCFPRP,-0.625
12,RRIRSRPPRLPRPRPRPAYSPRP,-0.0975
13,RRIRQRPPRLPRPRPRPQLSPRP,-0.0914
14,RRIRFRPPRLPRPRPRPGLVPRP,-0.0941
15,RRIRFRPPRLPRPRPRPMDVPRP,-0.0444
16,RRIRCRPPRLPRPRPRPAPKPRP,1.02
17,RRIRARPPRLPRPRPRPFFNPRP,-0.0671
18,RRIRWRPPRLPRPRPRPGDVPRP,0.0583
19,RRIRDRPPRLPRPRPRPSTVPRP,0.154
20,RRIRARPPRLPRPRPRPNNTPRP,-0.423
21,RRIRYRPPRLPRPRPRPQCEPRP,-0.0652
22,RRIRWRPPRLPRPRPRPKIWPRP,0.272
23,RRIRGRPPRLPRPRPRPRENPRP,0.978
24,RRIRNRPPRLPRPRPRPLEPPRP,0.0692
25,RRIRQRPPRLPRPRPRPCWLPRP,0.0947

row,Sequence,shrunken log2 fold change
1,RRIRMRPPRLPRPRPRPIRPPRP,-0.127
2,RRIRERPPRLPRPRPRPMDCPRP,-0.149
3,RRIRVRPPRLPRPRPRPPFIPRP,-0.23
4,RRIRRRPPRLPRPRPRPVQRPRP,0.254
5,RRIRGRPPRLPRPRPRPNRPPRP,-0.211
6,RRIRDRPPRLPRPRPRPRDDPRP,-0.0224
7,RRIRCRPPRLPRPRPRPLDSPRP,-0.179
8,RRIRWRPPRLPRPRPRPYWWPRP,-0.0939
9,RRIRMRPPRLPRPRPRPKIDPRP,0.285
10,RRIRPRPPRLPRPRPRPILMPRP,-0.112
11,RRIRTRPPRLPRPRPRPGRWPRP,0.393
12,RRIRCRPPRLPRPRPRPLDTPRP,-0.153
13,RRIRMRPPRLPRPRPRPCQQPRP,0.0325
14,RRIRHRPPRLPRPRPRPRVFPRP,0.201
15,RRIRMRPPRLPRPRPRPLFRPRP,1.44
16,RRIRFRPPRLPRPRPRPWCHPRP,0.524
17,RRIRLRPPRLPRPRPRPRQRPRP,0.892
18,RRIRRRPPRLPRPRPRPNYYPRP,-0.333
19,RRIRGRPPRLPRPRPRPWAHPRP,0.0122
20,RRIRPRPPRLPRPRPRPGRLPRP,-0.0937
21,RRIRYRPPRLPRPRPRPDDWPRP,-0.437
22,RRIRIRPPRLPRPRPRPYGWPRP,-0.0644
23,RRIRGRPPRLPRPRPRPWKAPRP,0.0375
24,RRIRRRPPRLPRPRPRPVPPPRP,0.77
25,RRIRIRPPRLPRPRPRPKSDPRP,-0.222

row,Sequence,shrunken log2 fold change
1,RRIRSRPPRLPRPRPRPLWEPRP,-0.0343
2,RRIRGRPPRLPRPRPRPKRAPRP,1.11
3,RRIRWRPPRLPRPRPRPQWGPRP,0.293
4,RRIRSRPPRLPRPRPRPDGHPRP,-0.0734
5,RRIRCRPPRLPRPRPRPKYRPRP,-0.326
6,RRIRWRPPRLPRPRPRPQGKPRP,0.127
7,RRIRVRPPRLPRPRPRPPREPRP,0.267
8,RRIRARPPRLPRPRPRPGEKPRP,0.333
9,RRIRTRPPRLPRPRPRPDHYPRP,-0.66
10,RRIRYRPPRLPRPRPRPKCTPRP,-0.0162
11,RRIRRRPPRLPRPRPRPNAGPRP,0.0188
12,RRIRYRPPRLPRPRPRPTPMPRP,0.843
13,RRIRFRPPRLPRPRPRPCATPRP,0.0672
14,RRIRKRPPRLPRPRPRPCHMPRP,-0.538
15,RRIRGRPPRLPRPRPRPKHNPRP,0.203
16,RRIRIRPPRLPRPRPRPCLTPRP,0.0747
17,RRIRGRPPRLPRPRPRPDRAPRP,1.04
18,RRIRYRPPRLPRPRPRPTWNPRP,-0.424
19,RRIRNRPPRLPRPRPRPNQYPRP,-0.712
20,RRIRERPPRLPRPRPRPWEQPRP,-0.131
21,RRIRCRPPRLPRPRPRPIQDPRP,-0.49
22,RRIRCRPPRLPRPRPRPLMGPRP,-0.214
23,RRIRERPPRLPRPRPRPDYPPRP,0.00237
24,RRIRNRPPRLPRPRPRPRSWPRP,0.201
25,RRIRMRPPRLPRPRPRPGKAPRP,0.153

row,Sequence,shrunken log2 fold change
1,RRIRMRPPRLPRPRPRPKIGPRP,-0.0597
2,RRIRSRPPRLPRPRPRPLLVPRP,0.0795
3,RRIRYRPPRLPRPRPRPWCNPRP,-0.123
4,RRIRTRPPRLPRPRPRPALVPRP,0.0324
5,RRIRNRPPRLPRPRPRPREQPRP,-0.00697
6,RRIRTRPPRLPRPRPRPKSGPRP,0.0903
7,RRIRNRPPRLPRPRPRPVQWPRP,-0.0368
8,RRIRWRPPRLPRPRPRPTKAPRP,0.122
9,RRIRGRPPRLPRPRPRPYFGPRP,-0.335
10,RRIRQRPPRLPRPRPRPCINPRP,-0.0449
11,RRIRSRPPRLPRPRPRPYKPPRP,-0.195
12,RRIRHRPPRLPRPRPRPFNEPRP,-0.64
13,RRIRERPPRLPRPRPRPPYPPRP,-0.32
14,RRIRFRPPRLPRPRPRPTMNPRP,-0.511
15,RRIRGRPPRLPRPRPRPHKSPRP,0.277
16,RRIRWRPPRLPRPRPRPIGFPRP,0.0993
17,RRIRLRPPRLPRPRPRPDYYPRP,-0.216
18,RRIRERPPRLPRPRPRPIILPRP,-0.136
19,RRIRIRPPRLPRPRPRPTNTPRP,-0.45
20,RRIRTRPPRLPRPRPRPLMIPRP,-0.0131
21,RRIRYRPPRLPRPRPRPNHPPRP,-0.125
22,RRIRGRPPRLPRPRPRPRAYPRP,0.338
23,RRIRWRPPRLPRPRPRPCREPRP,-0.189
24,RRIRQRPPRLPRPRPRPKELPRP,-0.534
25,RRIRYRPPRLPRPRPRPPYVPRP,-0.266

row,Sequence,shrunken log2 fold change
1,RRIRFRPPRLPRPRPRPDRRPRP,-0.39
2,RRIRGRPPRLPRPRPRPRQTPRP,-0.144
3,RRIRFRPPRLPRPRPRPKQCPRP,-0.0712
4,RRIRRRPPRLPRPRPRPYQYPRP,-0.0327
5,RRIRIRPPRLPRPRPRPEAIPRP,-0.0271
6,RRIRWRPPRLPRPRPRPFNIPRP,-0.715
7,RRIRDRPPRLPRPRPRPWWMPRP,0.0169
8,RRIRPRPPRLPRPRPRPKISPRP,-0.0927
9,RRIRWRPPRLPRPRPRPHFVPRP,-0.438
10,RRIRQRPPRLPRPRPRPAKLPRP,0.0771
11,RRIRFRPPRLPRPRPRPYVPPRP,-0.238
12,RRIRYRPPRLPRPRPRPNISPRP,-0.513
13,RRIRTRPPRLPRPRPRPNSNPRP,-0.716
14,RRIRNRPPRLPRPRPRPVDMPRP,-0.104
15,RRIRNRPPRLPRPRPRPYRCPRP,-0.153
16,RRIRVRPPRLPRPRPRPWFRPRP,-0.304
17,RRIRNRPPRLPRPRPRPFDFPRP,-0.161
18,RRIRTRPPRLPRPRPRPQKRPRP,0.206
19,RRIRSRPPRLPRPRPRPWLPPRP,0.0131
20,RRIRRRPPRLPRPRPRPMDLPRP,0.0641
21,RRIRWRPPRLPRPRPRPPVFPRP,0.384
22,RRIRCRPPRLPRPRPRPYPLPRP,-0.191
23,RRIRARPPRLPRPRPRPDPVPRP,0.688
24,RRIRSRPPRLPRPRPRPVVPPRP,0.0433
25,RRIRERPPRLPRPRPRPIARPRP,-0.0237
